From patent US20160011195A1 come the findings set out here.

Assay [1] deals with PLK1 PBD protein (residues 367-603) (human), P53350. Put plainly: competitive FP, displacement of fluorescein tracer SEQ ID NO: 7 from PLK1 PBD (367-603).
Assay [2] shares this target. Put plainly: competitive FP.
Assay [3] addresses PLK1 (endogenous, in HeLa / HeLa-H2B-GFP cells) (human), P53350. Put plainly: cell-based or functional assay.

Sequence of PLK1 PBD protein (residues 367-603) (human), P53350 (P53350 367-603 limits assumed): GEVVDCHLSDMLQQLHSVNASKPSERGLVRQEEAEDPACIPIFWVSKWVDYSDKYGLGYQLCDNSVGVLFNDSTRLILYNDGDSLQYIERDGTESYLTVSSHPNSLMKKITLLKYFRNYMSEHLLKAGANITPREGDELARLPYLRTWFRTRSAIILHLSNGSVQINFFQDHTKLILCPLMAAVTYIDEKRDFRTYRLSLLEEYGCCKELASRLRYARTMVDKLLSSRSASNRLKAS
Sequence of PLK1 (endogenous, in HeLa / HeLa-H2B-GFP cells) (human), P53350 (P53350 2-603): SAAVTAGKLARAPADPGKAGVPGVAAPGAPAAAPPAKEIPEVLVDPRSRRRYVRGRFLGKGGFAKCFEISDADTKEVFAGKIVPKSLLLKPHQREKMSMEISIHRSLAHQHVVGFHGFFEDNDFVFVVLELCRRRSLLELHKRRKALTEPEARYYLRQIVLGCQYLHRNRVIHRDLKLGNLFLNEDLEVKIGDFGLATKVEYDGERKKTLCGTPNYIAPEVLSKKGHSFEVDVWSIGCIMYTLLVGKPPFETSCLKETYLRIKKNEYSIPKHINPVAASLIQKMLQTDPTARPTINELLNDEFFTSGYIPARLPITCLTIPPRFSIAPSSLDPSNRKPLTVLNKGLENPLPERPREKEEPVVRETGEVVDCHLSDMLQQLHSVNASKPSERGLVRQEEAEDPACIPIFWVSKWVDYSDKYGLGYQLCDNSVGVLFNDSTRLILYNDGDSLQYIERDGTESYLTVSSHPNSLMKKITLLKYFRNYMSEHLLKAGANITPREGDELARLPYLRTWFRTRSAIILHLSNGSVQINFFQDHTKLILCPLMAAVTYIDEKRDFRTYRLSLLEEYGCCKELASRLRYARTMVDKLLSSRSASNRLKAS

The molecule STPNGL (modifications not checked) [Sample No. 5791, fragment ligated inhibitor (4-(Methylthio) benzoic acid)] had an IC50 in assay [1] of 18.5 µM.

Regarding STPNGL (modifications not checked) [Sample No. 5597, fragment ligated inhibitor], the IC50 in assay [1] was found to be 500 µM.

In assay [2], LLCSEPNGL (modifications not checked) [… (sample no. 345)] registered a fold less potent (than the phosphothreonine sequence) of 1000 fold. The same molecule registered an IC50 in assay [1] of 350 µM.

For the molecule LLCSTPNGL (modifications not checked) [LLCS[pT]PNGL, native phospho-CDC25c PBD binding sequence (sample no. 292)], in assay [3], the aberrant prometaphase/metaphase features (30 µM) stood at 25% and the relative fluorescence intensity of PLK1 staining at centrosomes (HeLa-H2B-GFP) (arbitrary fluorescence units) is 45.

As for STPNGL (modifications not checked) [Sample No. 5830, fragment ligated inhibitor (4-(Propylamino) benzoic acid)], in assay [1], the IC50 was found to be 16.5 µM.

In turn, STPNGL (modifications not checked) [Sample No. 5753, fragment ligated inhibitor] showed an IC50 in assay [1] of 104 µM.

For STPNGL (modifications not checked) [Sample No. 5786, fragment ligated inhibitor (4-ethoxybenzoic acid)], in assay [1], the IC50 is 64.7 µM.

With STPNGL (modifications not checked) [Sample No. 5754, fragment ligated inhibitor (4-methoxybenzoic acid)], the IC50 in assay [1] amounted to 125 µM.

With STPNGL (modifications not checked) [3G2-S[pT]PNGL (4-butylbenzoic acid) (Sample No. 5827)], in assay [3], the Aberrant mitoses @ 24 hr was determined as 53.8%; the Apoptosis @24 hr was 55.5%; the proportion of viable cells after 24 hours, 30 µM (Annexin V/PI) was determined as 45%.

On to LLCSTPNGL (modifications not checked) [Ac-LLCS[pT]PNGL (sample no. 5821)], for which the fraction of viable cells after 24 hours, 30 µM (Annexin V/PI) in assay [3] stood at 57%.

In assay [1], STPNGL (modifications not checked) [Sample No. 5593, fragment ligated inhibitor] came in with an IC50 of 380 µM.

As for STPNGL (modifications not checked) [Sample No. 5792, fragment ligated inhibitor (4-(Methylamino) benzoic acid)], in assay [1], the IC50 was 31.2 µM.

In assay [1], STPNGL (modifications not checked) [Sample No. 5600, fragment ligated inhibitor] came in with an IC50 of 550 µM.

In assay [3], STPNGL (modifications not checked) [3G1-S[pT]PNGL (4-ethylbenzoic acid) (Sample No. 5788)] came in with an Aberrant mitoses @ 24 hr of 47.9%; an Apoptosis @24 hr, 30 mM of 36.2%; a proportion of viable cells after 24 hours, 30 µM (Annexin V/PI) of 64%; a relative fluorescence intensity of PLK1 staining at centrosomes (10 µM, HeLa-H2B-GFP) (arbitrary fluorescence units) of 32.

Molecule STPNGL (modifications not checked) [Sample No. 5826, fragment ligated inhibitor (4-propylbenzoic acid)] showed an IC50 in assay [1] of 10.8 µM.

As for LLAAAPNGL (modifications not checked) [… (sample no. 5783)], the aberrant prometaphase/metaphase features (30 µM) in assay [3] turned out to be 9.5%.

In assay [3], PLHSTA (modifications not checked) [Ac-PLHS[pT]A (sample no. 5743)] gave an Aberrant mitoses @ 24 hr, 30 mM of 40.3%; an Apoptosis @24 hr of 34%; a cells with mitotic abnormalities (10 µM) of 32%; a relative fluorescence intensity of PLK1 staining at centrosomes (30 µM, HeLa-H2B-GFP) (arbitrary fluorescence units) of 33.

PLHSEA (modifications not checked) [Ac-PLHSEA (sample no. 5744)] registered an IC50 in assay [1] of 500 µM.

The molecule STPNGL (modifications not checked) [Sample No. 5595, fragment ligated inhibitor] had an IC50 in assay [1] of 475 µM.

In turn, STPNGL (modifications not checked) [Sample No. 5601, fragment ligated inhibitor] displayed an IC50 in assay [1] of 400 µM.

With LHSTAI (modifications not checked) [Ac-LHS[pT]AI (sample no. 5781)], in assay [3], the aberrant metaphase (30 µM) stood at 23%; the decrease of the percentage of viable cells, 24 hours, 30 µM (Annexin V/PI) was 30%; the relative fluorescence intensity of PLK1 staining at centrosomes (30 µM, HeLa-H2B-GFP) (arbitrary fluorescence units) was found to be 35.

As for STPNGL (modifications not checked) [Sample No. 5604, fragment ligated inhibitor], the IC50 in assay [1] was found to be 300 µM.

Regarding STPNGL (modifications not checked) [Sample No. 5599, fragment ligated inhibitor], the IC50 in assay [1] was 600 µM.

For STPNGL (modifications not checked) [Sample No. 5591, fragment ligated inhibitor], the IC50 in assay [1] is 375 µM.
